This is an account of results in WO2006003179A2 (dated 2006).

For assay [1], the target named is recombinant soluble KIR2DL3 (entire extracellular domain, produced in E. coli) (human) (UniProt P43628). Put plainly: Biacore competition, immobilized KIR2DL3; first Ab DF200, competitor (second Ab) 1-6F1. More on the design: concentration or dose not given beside the values.
For assay [2] the target is unchanged. The experiment in a line: Biacore competition, immobilized KIR2DL3; first Ab DF200, competitor (second Ab) Pan2D. Also noted: concentration or dose not given beside the values. (SPR reads the build-up and loss of mass on a sensor chip optically.)
For assay [3], the target named is recombinant soluble KIR2DL1 (entire extracellular domain, produced in E. coli) (human) (UniProt P43626). Put plainly: Biacore SPR, KIR2DL1 immobilized on CM5, antibody as analyte (bivalent binding), Example 3.
For assay [4], the target named is recombinant soluble KIR2DL3 (entire extracellular domain, produced in E. coli) (human) (UniProt P43628). Put plainly: Biacore, immobilized KIR2DL3; second Ab DF200 injected after first Ab 1-7F9.
The target is the same in assay [5]. Put plainly: Biacore, immobilized KIR2DL3; second Ab DF200 alone (field of first Ab 1-6F1).
Assay [6] has the same target. The experiment in a line: Biacore SPR, KIR2DL3 immobilized on CM5, antibody as analyte (bivalent binding), Example 3.
Assay [7] has the same target. Put plainly: Biacore competition, immobilized KIR2DL3; first Ab DF200, competitor (second Ab) 1-4F1. Also noted: concentration or dose not given beside the values.
Assay [8] shares this target. The experiment in a line: Biacore competition, immobilized KIR2DL3; first Ab DF200, competitor (second Ab) GL183. More on the design: concentration or dose not given beside the values.
Assay [9] shares this target. The experiment in a line: Biacore competition, immobilized KIR2DL3; first Ab DF200, competitor (second Ab) 1-7F9. Also noted: concentration or dose not given beside the values.
Assay [10] shares this target. The experiment in a line: Biacore competition, immobilized KIR2DL3; first Ab DF200, competitor (second Ab) 1-6F5. More on the design: concentration or dose not given beside the values.
Assay [11] has the same target. The experiment in a line: Biacore, immobilized KIR2DL3; second Ab DF200 alone (field of first Ab 1-6F5).
Assay [12] shares this target. Put plainly: Biacore, immobilized KIR2DL3; second Ab DF200 injected after first Ab 1-4F1.
For assay [13] the target is unchanged. The experiment in a line: Biacore, immobilized KIR2DL3; second Ab DF200 alone (field of first Ab 1-7F9).
For assay [14] the target is unchanged. Put plainly: Biacore, immobilized KIR2DL3; second Ab DF200 injected after first Ab 1-6F5.
For assay [15] the target is unchanged. Put plainly: Biacore, immobilized KIR2DL3; second Ab DF200 alone (field of first Ab 1-4F1).
The target is the same in assay [16]. Put plainly: Biacore, immobilized KIR2DL3; second Ab DF200 injected after first Ab 1-6F1.
The target is the same in assay [17]. Put plainly: Biacore, immobilized KIR2DL3; second Ab GL183 injected after first Ab 1-4F1.
Assay [18] has the same target. Put plainly: Biacore competition, immobilized KIR2DL3; first Ab gl183, competitor (second Ab) 1-7F9. Also noted: concentration or dose not given beside the values.
Assay [19] shares this target. The experiment in a line: Biacore, immobilized KIR2DL3; second Ab GL183 alone (field of first Ab 1-7F9).
Assay [20] shares this target. The experiment in a line: Biacore, immobilized KIR2DL3; second Ab GL183 alone (field of first Ab 1-6F1).
For assay [21] the target is unchanged. The experiment in a line: Biacore competition, immobilized KIR2DL3; first Ab gl183, competitor (second Ab) DF200. More on the design: concentration or dose not given beside the values.
Assay [22] shares this target. The experiment in a line: Biacore competition, immobilized KIR2DL3; first Ab gl183, competitor (second Ab) 1-4F1. Also noted: concentration or dose not given beside the values.
Assay [23] has the same target. Put plainly: Biacore, immobilized KIR2DL3; second Ab GL183 injected after first Ab 1-6F1.
Assay [24] has the same target. Put plainly: Biacore competition, immobilized KIR2DL3; first Ab gl183, competitor (second Ab) 1-6F1. More on the design: concentration or dose not given beside the values.
For assay [25] the target is unchanged. Put plainly: Biacore, immobilized KIR2DL3; second Ab GL183 alone (field of first Ab 1-4F1).
The target is the same in assay [26]. The experiment in a line: Biacore competition, immobilized KIR2DL3; first Ab gl183, competitor (second Ab) Pan2D. Also noted: concentration or dose not given beside the values.
Assay [27] has the same target. Put plainly: Biacore, immobilized KIR2DL3; second Ab GL183 injected after first Ab 1-7F9.
In assay [28] the target is T1, KIR2DS3 on transfected cells (human, UniProt Q14952 22-304).
T1 construct: whole, on cells
The experiment in a line: flow cytometry on cells transfected with KIR2DS3 (Figure 16). Background: Flow cytometry measures light scatter and fluorescence of single cells or particles in a stream.

Assay [29] has as its target recombinant soluble KIR2DL3 (entire extracellular domain, produced in E. coli) (human) (UniProt P43628). The experiment in a line: Biacore, immobilized KIR2DL3; second Ab Pan2D injected after first Ab 1-6F1.
Assay [30] shares this target. The experiment in a line: Biacore, immobilized KIR2DL3; second Ab Pan2D injected after first Ab 1-4F1.
The target is the same in assay [31]. Put plainly: Biacore, immobilized KIR2DL3; second Ab Pan2D alone (field of first Ab 1-4F1).
Assay [32] shares this target. The experiment in a line: Biacore, immobilized KIR2DL3; second Ab Pan2D alone (field of first Ab 1-6F1).
For assay [33] the target is unchanged. The experiment in a line: Biacore, immobilized KIR2DL3; second Ab Pan2D alone (field of first Ab 1-7F9).
Assay [34] shares this target. The experiment in a line: Biacore, immobilized KIR2DL3; second Ab Pan2D injected after first Ab 1-7F9.
Assay [35] has the same target. The experiment in a line: Biacore, immobilized KIR2DL3; second Ab Pan2D alone (field of first Ab 1-6F5).

T1 sequence (Q14952 22-304): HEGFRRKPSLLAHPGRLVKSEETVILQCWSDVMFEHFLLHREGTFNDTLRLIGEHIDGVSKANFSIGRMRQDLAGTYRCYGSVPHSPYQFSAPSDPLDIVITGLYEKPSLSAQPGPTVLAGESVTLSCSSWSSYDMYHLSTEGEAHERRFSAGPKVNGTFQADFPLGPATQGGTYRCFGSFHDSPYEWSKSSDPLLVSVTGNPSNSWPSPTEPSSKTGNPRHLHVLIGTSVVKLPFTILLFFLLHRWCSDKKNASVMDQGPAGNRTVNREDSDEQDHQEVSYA

Take murine monoclonal antibody DF200: the % inhibition of second antibody binding in assay [1] amounted to 16%; in assay [2], 75%; in assay [7], 75%; in assay [8], 20%; in [9], 62%; in assay [10], 4%. The Kd in [3] worked out at 11 nM; in [6], 2 nM. The RU of second antibody after first antibody (RU2) in assay [4] was found to be 450 RU; in assay [12], 210 RU; in assay [14], 760 RU; in [16], 760 RU. Besides, the RU of second antibody alone (RU1) in assay [5] came to 790 RU; in assay [11], 800 RU; in [13], 770 RU; in assay [15], 1140 RU.
On to GL183 (antibody), for which the RU of second antibody after first antibody (RU2) came to 330 RU in [17], 570 RU in assay [23] and 200 RU in assay [27]. The % inhibition of second antibody binding in assay [18] was 76%; in assay [21], 8%; in assay [22] it was 75%; in assay [24] it was 18%; in [26], 40%. Also, the RU of second antibody alone (RU1) was determined as 800 RU in assay [19], 620 RU in [20] and 1240 RU in assay [25].

B1: human monoclonal antibody 1-7F9 (antibody, human IgG4, kappa, V domains shown)
VH: QVQLVQSGAEVKKPGSSVKVSCKASGGTFSFYAISWVRQAPGQGLEWMGGFIPIFGAANYAQKFQGRVTITADESTSTAYMELSSLRSDDTAVYYCARIPSGSYYYDYDMDVWGQGTTVTVSS
VL: EIVLTQSPVTLSLSPGERATLSCRASQSVSSYLAWYQQKPGQAPRLLIYDASNRATGIPARFSGSGSGTDFTLTISSLEPEDFAVYYCQQRSNWMYTFGQGTKLEIKR
notes: also called HuKIR 1-7F9; mAb 1-7F9
For the molecule B1, in [28], the binding result was “no binding (tested: 1 μg/ml)”.

B2: murine monoclonal antibody NKVSF1 (Pan2D) (antibody, V domains shown)
VH: EVQLQQSGTVLARPGASVKMSCKASGYTFTSYWMHWMKQRPGQGLEWIGTIYPGNSDTNYNQKFKGKAKLTAVTSTNTAYMELSSLTNEDSAVYYCSRPTTATRSSAMDYWGQGTSVTVSS
VL: QIVLTQSPASMSASLGERVTMTCTASSSVSSSYLYWYQQKPGSSPKLWIYSTSNLASGVPARFSGSGSGTSYSLTISSMEAEDAATYYCHQYHRSPPTFGGGTKLEIKR
notes: Mouse mAb, bought from Serotec, cat
In the case of B2, the RU of second antibody after first antibody (RU2) turned out to be 1090 RU in assay [29], 890 RU in assay [30] and 830 RU in assay [34]. Moreover, the RU of second antibody alone (RU1) in assay [31] worked out at 2400 RU; in assay [32] it was 990 RU; in [33], 870 RU; in [35], 990 RU. Besides, the binding result in assay [28] is “no binding (tested: 1 μg/ml)”.
